Source: patent publication US20200165340A1 (XIANGTAN TENGHUA BIOSCIENCE, published 2020)

Biological target: T1, human PD-L1 expressed at the cell membrane (human, UniProt Q9NZQ7 19-290)
T1 construct: whole, on cells; also called programmed death-ligand 1; cellular PD-L1 protein
Assay: flow cytometry (FACS) titration on 293T cells stably transfected with human PD-L1, anti-mouse IgG PE detection

T1 sequence (Q9NZQ7 19-290): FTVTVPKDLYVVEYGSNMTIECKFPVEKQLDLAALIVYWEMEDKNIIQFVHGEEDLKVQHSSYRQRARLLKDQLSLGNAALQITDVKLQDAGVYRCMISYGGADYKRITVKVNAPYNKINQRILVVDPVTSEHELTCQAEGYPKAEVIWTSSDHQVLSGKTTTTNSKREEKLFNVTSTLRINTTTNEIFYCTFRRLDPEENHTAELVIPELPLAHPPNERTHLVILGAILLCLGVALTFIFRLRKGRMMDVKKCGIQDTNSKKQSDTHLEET

- EC50: 0.3 nM
B1: anti-PD-L1 mouse monoclonal antibody Q106 (antibody, V domains shown)
VH: DVQLQESGPGLVKPSQSLSLTCSVTGYSITSDYAWNWIRQFPGDTLEWMGYINYSGSSTYNPSLISRLSITRDTSKNQFFLQLNSVTSEDTATYYCARGPDWDWYFDYWGQGTTLTVSS
VL: DIVLTQSPATLSVTPGDSVSLSCRASQSISNNLHWYQQKSHESPRLLIKYASQSISGIPSRFSGSGSGTDFTLSINGVETEDFGMYFCQQTNSWPTFGGGTKLEIK
notes: also called PD-L1 antibody Q106
